Source: publication PMC8158011 (Proceedings of the National Academy of Sciences of the …, 2021)

Biological target: T1, FGFR4-Ecto-Fc (ectodomain of human FGFR4 fused to the Fc region of human IgG1) (human, UniProt P22455 22-369)
T1 sequence (looked up): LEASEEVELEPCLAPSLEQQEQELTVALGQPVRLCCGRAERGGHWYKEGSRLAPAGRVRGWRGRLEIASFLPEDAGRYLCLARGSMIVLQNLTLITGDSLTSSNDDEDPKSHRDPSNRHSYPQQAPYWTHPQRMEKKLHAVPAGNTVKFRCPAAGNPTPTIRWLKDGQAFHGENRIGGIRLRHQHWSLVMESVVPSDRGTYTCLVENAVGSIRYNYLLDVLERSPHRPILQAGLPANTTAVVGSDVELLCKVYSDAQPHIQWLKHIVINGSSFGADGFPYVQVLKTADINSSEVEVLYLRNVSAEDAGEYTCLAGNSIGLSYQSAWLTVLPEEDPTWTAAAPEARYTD
Assay: pull-down

B1: purified recombinant human FAM3B-His protein (ligand, UniProt P58499 30-235, looked up)
chain: ELIPDAPLSSAAYSIRSIGERPVLKAPVPKRQKCDHWTPCPSDTYAYRLLSGGGRSKYAKICFEDNLLMGEQLGNVARGINIAIVNYVTGNVTATRCFDMYEGDNSGPMTKFIQSAAPKSLLFMVTYDDGSTRLNNDAKNAIEALGSKEIRNMKFRSSWVFIAAKGLELPSEIQREKINHSDAKNNRYSGWPAEIQIEGCIPKERS
  binding result: binds
